# Experimental data: patent US20260055186A1 (REPERTOIRE IMMUNE MEDICINES, published 2026)
# B1: rIL-12 (ligand)
# alpha: RVIPVSGPARCLSQSRNLLKTTDDMVKTAREKLKHYSCTAEDIDHEDITRDQTSTLKTCLPLELHKNESCLATRETSSTTRGSCLPPQKTSLMMTLCLGSIYEDLKMYQTEFQAINAALQNHNHQQIILDKGMLVAIDELMQSLNHNGETLRQKPPVGEADPYRVKMKLCILLHAFSTRVVTINRVMGYLSSA
# beta: MWELEKDVYVVEVDWTPDAPGETVNLTCDTPEEDDITWTSDQRHGVIGSGKTLTITVKEFLDAGQYTCHKGGETLSHSHLLLHKKENGIWSTEILKNFKNKTFLKCEAPNYSGRFTCSWLVQRNMDLKFNIKSSSSSPDSRAVTCGMASLSAEKVTLDQRDYEKYSVSCQEDVTCPTAEETLPIELALEARQQNKYENYSTSFFIRDIIKPDPPKNLQMKPLKNSQVEVSWEYPDSWSTPHSYFSLKFFVRIQRKKEKMKETEEGCNQKGAFLVEKTSTEVQCKGGNVCVQAQDRYYNSSCSKWACVPCRVRS
# notes: untargeted control; also called rmIL-12; non-targeted recombinant mouse IL-12; copies: 1 + 1
# B2: H6K3-IgG-IL12 (1×HC) (other)
# VH: EVQLVQSGAEVKKPGATVKISCKASGYTFTDFTMHWVQQAPGKGLEWIGLVNPNNGGNIYAEKFQGRVTLTVDTSTSTAYMELSSLRSEDTAVYYCGRVPLYTSHGMDYWGQGTLVTVSS
# VL: EIVLTQSPATLSLSPGERATISCRASESVDSYDINSMHWYQQKPGQAPRLLIYRASHLQSGIPARFSGSGSRTDFTLTISSLEPEDFATYYCQQSNEDPLTFGQGTKLEIK
# notes: Humanized 02A01 VH6/VK3 IgG1 with one human IL-12p70 on the C-terminus of the knob heavy chain; Fc with L234A, L235A, P329G, N297A and T366W / T366S, L368A, Y407V; not tied to this name; also called hCD8IgG-1×IL12 (HC); hCD8IgG-IL12 (1 × HC)
# B3: H6K3-IgG-IL12 (LC) (other)
# VH: B2 VH
# VL: B2 VL
# notes: Humanized 02A01 VH6/VK3 IgG1 with human IL-12p70 on each light chain C-terminus; Fc with L234A, L235A, P329G, N297A; not tied to this name; also called hCD8IgG-IL12 (LC)
# Assays:
# mouse CD8 on mouse cells = molecular target: T1, mouse CD8 on mouse cells (mouse, UniProt P01731 28-247); assay: flow cytometry of peripheral blood, B16-F10-bearing mice, 4 days after the first dose (in vivo)
# T1 construct: whole, on cells; also called mCD8
# T1 sequence (P01731 28-247): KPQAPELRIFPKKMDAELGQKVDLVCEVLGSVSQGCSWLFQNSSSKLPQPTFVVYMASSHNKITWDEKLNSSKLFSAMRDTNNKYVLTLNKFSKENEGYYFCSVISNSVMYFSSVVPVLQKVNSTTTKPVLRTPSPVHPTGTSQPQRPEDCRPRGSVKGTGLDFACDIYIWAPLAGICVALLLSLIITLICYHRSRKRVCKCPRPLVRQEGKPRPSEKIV
# Method: Mice were injected weekly for a total of 4 doses, at a dose equivalent to 10 μg of recombinant IL12. Tumor volume was measured twice per week, and mice were euthanized if tumor volume exceeded 2000 mm³. […] Specifically, in the MC38 model, treatment with the CD8IgG-IL12 (LC) Clone 2 construct controlled tumor growth up to day 21 and yielded 3/8 complete responders, whereas treatment with the CD8IgG-IL12 (1× HC) construct controlled tumor growth for the entire duration of the study and yielded 7/8 complete responders (FIGS. 6A-6C). In the B16-F10 model, which is typically less responsive to immunotherapy, both constructs limited tumor growth for up to 14 days after the initial dose (FIGS. 7A-7C).
# In the same study, the two anti-CD8:IL-12 fusion constructs were also evaluated for their ability to be retained in tissues. Peripheral blood cells were collected from MC38 and B16-F10 tumor-bearing mice 4 days after administration of the first dose of the IL-12 construct. Samples were analyzed by flow cytometry. In the case of the MC38 tumor-bearing mice, IL-12 was detected on the surface of CD8+ T cells 4 days post-treatment with either of the two anti-CD8:IL-12 fusion protein constructs, but not on the surface of CD4+ T cells or NK cells (FIG. 8A). […]
# [1] = molecular target: T2, cynomolgus monkey CD8 on cynomolgus cells (cynomolgus monkey); assay: flow cytometry, NK cells in cynomolgus PBMCs (CD8-expressing by paragraph 442), 30 min 37 °C, anti-IL-12p40
# T2 construct: whole, on cells; also called cynomolgus CD8
# Method: (§1) Fusion proteins H6K3-IgG-IL12 (LC) and H6K3-IgG-IL12 (1×HC) were also evaluated for their ability to bind CD8-expressing cells in human and cynomolgus monkey PBMCs. Briefly, 5×10⁴ human PBMCs (StemCell Technologies) or cynomolgus monkey PBMCs (iQ Biosciences) were incubated with 7 serial 5-fold dilutions of one of the two aforementioned H6K3-IgG-IL12 constructs for 30 minutes at 37° C. Cells were washed twice with MACS buffer and stained with viability dye and fluorophore-conjugated antibodies against IL-12 and cell-surface markers for 20 minutes at 4° C. Cells were analyzed on a FACSCelesta using Diva software (BD Biosciences). Binding activity for all treatments was quantified and represented as the mean fluorescence intensity values of IL-12 on human CD8+ T cells and NK cells (FIGS. 17A-17B) and on cynomolgus monkey CD8+ T cells and NK cells (FIGS. 17C-17D). For the H6K3-IgG-IL12 (LC) treatments, results are also reported as the frequency of IL-12+CD8+ T cells and NK cells (FIG. 17E). As shown in FIGS. 17A-17D, both H6K3-IgG-IL12 (LC) and H6K3-IgG-IL12 (1×HC) were able to selectively bind human CD8+ T cells over NK cells at a range of concentrations. […] Where the cells were incubated with 0.128 nM of the IL-12 fusion constructs, the number of live CD45+ cells staining as CD8+ and IL-12 were assessed by flow cytometry. […]
# [2] = molecular target: T3, human CD8 on human T cells (human, UniProt P01732 22-235); assay: flow cytometry, CD8+ T cells in human PBMCs, 30 min 37 °C, anti-IL-12p40
# T3 construct: whole, on cells; the antibodies were raised against human CD8 alpha; also called CD8 on human CD8+ T cells; hCD8
# T3 sequence (P01732 22-235): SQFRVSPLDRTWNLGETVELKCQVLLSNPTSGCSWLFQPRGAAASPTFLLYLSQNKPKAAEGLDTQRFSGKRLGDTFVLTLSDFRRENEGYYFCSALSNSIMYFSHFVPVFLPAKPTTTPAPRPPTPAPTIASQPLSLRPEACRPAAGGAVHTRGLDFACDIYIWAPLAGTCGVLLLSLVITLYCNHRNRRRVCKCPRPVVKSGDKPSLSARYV
# Method: as §1
# [3] = molecular target: T3, human CD8 on human T cells; assay: flow cytometry, CD8+ T cells in human PBMCs, 30 min 37 °C, anti-human IL-12 AF647
# Method: Fusion proteins H6K3-IgG-IL12 (LC) and H6K3-IgG-IL12 (1×HC) were evaluated for their ability to selectively bind human CD8+ T cells in PBMCs. Briefly, 5×10⁴ human PBMCs (StemCell Technologies) were incubated with 7 serial 5-fold dilutions of one of the two aforementioned H6K3-IgG-IL12 constructs for 30 minutes at 37° C. Cells were washed twice with MACS buffer and stained for 20 minutes at 4° C. with fluorophore-conjugated anti-CD3, anti-CD4, anti-CD8, anti-CD56, and anti-IL12 antibodies, and viability dye. Cells were analyzed on a FACSCelesta using Diva software (BD Biosciences). Binding activity was quantified and represented as the mean fluorescent intensity values of IL-12 on either CD8+ T cells or NK Cells. As shown in FIGS. 16A-16B, both H6K3-IgG-IL12 (LC) and H6K3-IgG-IL12 (1×HC) were able to selectively bind human CD8+ T cells over NK cells at a range of concentrations.
# [4] = molecular target: T2, cynomolgus monkey CD8 on cynomolgus …; assay: cell-based or functional assay
# [5] = molecular target: T3, human CD8 on human T cells; assay: cell-based or functional assay
# [6] = molecular target: T2, cynomolgus monkey CD8 on cynomolgus …; assay: flow cytometry, CD8+ T cells in cynomolgus PBMCs, 30 min 37 °C, anti-IL-12p40
# Method: as §1
Binder,binding result (mouse CD8 on mouse cells),EC50 (read off the curve) [1],EC50 (read off the curve) [2],EC50 (read off the curve) [3],EC50 of pSTAT4 signaling in cynomolgus CD8+ T cells [4],EC50 of pSTAT4 signaling in cynomolgus NK cells [4],EC50 of pSTAT4 signaling in human CD8+ T cells [5],EC50 (read off the curve) [6]
B1,"no binding (tested: dose equivalent to 10 µg IL-12, i.v.)",,,,,,,
B2,,~0.1 nM,~0.05 nM,~0.06 nM,2.3 pM,2 pM,2.3 pM,~0.05 nM
B3,,,~0.03 nM,~0.04 nM,1.8 pM,2.4 pM,3.3 pM,~0.05 nM
